B1: MNAT1 (parent)
chain: SLREYNDFLEEVEEIVFNLTNNVD
B2: MLL5 (parent)
chain: DCMGIDRQHIPDTYLCERCQPRNL

Variants of: B1
Assay: protein stability index of a GFP-peptide fusion (GPS, HEK-293T) (PSI 1-6); higher = more stable
Conditions: c terminus: a fixed tail appended
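Note: lentivirally expressed fusions sorted by FACS into six bins by GFP to DsRed ratio, PSI derived from sequencing read proportions per bin multiplied by bin number.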

Row | Variant | protein stability index
1 | V23F | 2.71
2 | V23G | 2.73
3 | V23H | 2.38
4 | V23I | 1.98
5 | V23K | 2.08
6 | V23L | 1.64
7 | V23M | 1.44
8 | V23N | 2.35
9 | V23P | 3.05
10 | V23Q | 2.21
11 | V23R | 2.18
12 | V23S | 3.05
13 | V23T | 2.5
14 | V23W | 1.57
15 | V23Y | 1.8
16 | D24A | 1.79
17 | D24C | 1.5

Row | Variant | protein stability index
18 | D24E | 2.47
19 | D24F | 1.87
20 | D24G | 2.61
21 | D24H | 1.88
22 | D24I | 1.85
23 | D24K | 1.81
24 | D24L | 1.82
25 | D24N | 1.31
26 | D24P | 2
27 | D24Q | 1.73
28 | D24R | 1.26
29 | D24S | 2.07
30 | D24T | 1.82
31 | D24V | 1.65
32 | D24W | 1.54
33 | D24Y | 1.9

Variants of: B2
Assay: as above
Conditions: c terminus: a fixed tail appended

Row | Variant | protein stability index
34 | D1A | 2.69
35 | D1C | 3.63
36 | D1E | 2.63
37 | D1F | 1.89
38 | D1H | 2.73
39 | D1I | 2.17
40 | D1K | 2.58
41 | D1L | 2.21
42 | D1M | 1.91
43 | D1N | 2.21
44 | D1P | 3.3
45 | D1Q | 2.41
46 | D1R | 2.42
47 | D1S | 3.17
48 | D1T | 2.43
49 | D1V | 2.86
50 | D1W | 1.4
51 | D1Y | 1.95
52 | C2A | 3.09
53 | C2D | 3.08
54 | C2E | 3.79
55 | C2F | 2.1
56 | C2G | 2.7

Row | Variant | protein stability index
57 | C2H | 3.36
58 | C2I | 2.57
59 | C2K | 2.99
60 | C2L | 2.73
61 | C2M | 2.89
62 | C2N | 3.41
63 | C2P | 4.03
64 | C2Q | 3.48
65 | C2R | 3.38
66 | C2S | 2.63
67 | C2T | 3.21
68 | C2V | 2.77
69 | C2W | 2.21
70 | C2Y | 2.53
71 | M3A | 2.48
72 | M3C | 3.14
73 | M3D | 3.75
74 | M3E | 4.56
75 | M3F | 2.57
76 | M3G | 2.94
77 | M3H | 2.81
78 | M3I | 2.77
79 | M3K | 3.63

Row | Variant | protein stability index
80 | M3L | 2.89
81 | M3N | 2.88
82 | M3P | 3.32
83 | M3Q | 2.48
84 | M3R | 2.61
85 | M3S | 3.66
86 | M3T | 2.47
87 | M3V | 2.9
88 | M3W | 3.54
89 | M3Y | 3.03
90 | G4A | 2.23
91 | G4C | 3.73
92 | G4D | 3.11
93 | G4E | 3.23
94 | G4F | 2.37
95 | G4H | 3.98
96 | G4I | 2.41
97 | G4K | 3.19
98 | G4L | 2.63
99 | G4M | 2.88
100 | G4N | 2.19
101 | G4P | 2.55
102 | G4Q | 2.88

Row | Variant | protein stability index
103 | G4R | 2.48
104 | G4S | 3.45
105 | G4T | 3.23
106 | G4V | 2.38
107 | G4W | 1.78
108 | G4Y | 2.49
109 | I5A | 3.7
110 | I5C | 3.73
111 | I5D | 2.87
112 | I5E | 3.57
113 | I5F | 2.85
114 | I5G | 3.5
115 | I5H | 3.99
116 | I5K | 3.48
117 | I5M | 3.1
118 | I5N | 3.67
119 | I5P | 3.27
120 | I5Q | 3.37
121 | I5R | 3.37
122 | I5S | 2.54
123 | I5T | 3.69
124 | I5V | 3.16
125 | I5W | 2.88

Row | Variant | protein stability index
126 | I5Y | 2.61
127 | D6A | 3.27
128 | D6C | 3.29
129 | D6E | 2.78
130 | D6F | 1.74
131 | D6G | 2.78
132 | D6H | 3.19
133 | D6I | 1.56
134 | D6K | 2.59
135 | D6L | 2.31
136 | D6M | 1.88
137 | D6N | 2.4
138 | D6P | 2.61
139 | D6Q | 3.21
140 | D6R | 2.74
141 | D6S | 2.99
142 | D6T | 2.02
143 | D6V | 2.4
144 | D6W | 1.62
145 | D6Y | 2.47
146 | R7A | 2.63
147 | R7C | 4.09
148 | R7D | 3.62

Row | Variant | protein stability index
149 | R7E | 3.58
150 | R7F | 2.78
151 | R7G | 3.69
152 | R7H | 3.73
153 | R7I | 2.24
154 | R7K | 2.29
155 | R7L | 2.68
156 | R7M | 2.55
157 | R7N | 2.9
158 | R7P | 2.94
159 | R7Q | 3.06
160 | R7S | 3.44
161 | R7T | 3.02
162 | R7V | 2.39
163 | R7W | 2.4
164 | R7Y | 2.2
165 | Q8A | 2.54
166 | Q8C | 2.73
167 | Q8D | 2.27

From the supplement of paper PMC10567573
